In the series the test system is ATP. Briefly: switch fluorescence ratio, 500 uM ATP over buffer (Cy3 cluster intensity, sum of 5 cycles each) (fold (ratio)); higher = stronger signal-on switching upon ATP binding; sequences stand for … in TCGTCGGCAGCGTCAGATGTGTATAAGAGACAGTTTTTTTTTTTTTTTTTTTTTTTTT…TC. To be noted: aptamer strand: ATP DNA aptamer (quencher-CACCTGGGGGAGTATTGCGGAGGAAGG + anchor), 100 nM annealed; ATP concentration: 500 uM. Summed up: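 Clusters with intensities outside 100-1000 RFU were excluded. The remaining Cy3-labelled switching-strand clusters on a modified Illumina MiSeq flow-cell had been annealed to 100 nM quencher-labelled ATP aptamer and imaged in selection buffer, then after 15 min with 500 uM ATP at 22 °C, for five cycles separated by NaOH stripping and re-annealing. The fluorescence ratio, averaged per switch-domain sequence, is each cluster's summed target-cycle Cy3 intensity over its summed buffer-cycle Cy3 intensity.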

± gives the standard deviation of the averaged measurements.
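Further: ATP exposure 15 min at 22 °C before imaging.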

In the case of ATTTGGCGCG, the switch fluorescence ratio came to 0.964 ± 0.024.

As for ATTTGGCGTG, the switch fluorescence ratio came out at 1.01 ± 0.099. As to ATTTGGGCAT, the switch fluorescence ratio came out at 0.994 ± 0.029. For the sequence ATTTGGGGAC, the switch fluorescence ratio was 0.98 ± 0.016. Next, ATTTGGGGAT: 1.02 ± 0.03; ATTTGGGTAG: 1.01 ± 0.062; ATTTGGTGAC: 0.9987 ± 0.0042.

As for ATTTGGTGCA, the switch fluorescence ratio came out at 1.01 ± 0.056. For ATTTGGTTA, the switch fluorescence ratio is 0.993 ± 0.035.

As for ATTTGTAAGT, the switch fluorescence ratio was found to be 0.9587 ± 0.006.

Take ATTTGTTGCA: the switch fluorescence ratio came out at 1.0298 ± 0.00091. As for ATTTGTTGCG, the switch fluorescence ratio is 0.999 ± 0.017. Turning to ATTTTAAGCG, the switch fluorescence ratio is 1.01 ± 0.014.

On to ATTTTAAGTC, for which the switch fluorescence ratio was determined as 0.987 ± 0.041.

Consider ATTTTACGAT, for which the switch fluorescence ratio was determined as 0.999 ± 0.049. Consider ATTTTAGTGT, for which the switch fluorescence ratio came out at 0.968 ± 0.029.

On to ATTTTATAAA, for which the switch fluorescence ratio turned out to be 0.986 ± 0.026. Regarding ATTTTATTTG, the switch fluorescence ratio was determined as 1.06 ± 0.056.

As for ATTTTCATTG, the switch fluorescence ratio came out at 0.9749 ± 0.0087. Next, ATTTTCCAGG: 1.49 ± 0.26; ATTTTCTTTG: 0.9958 ± 0.0089; ATTTTGCAAT: 1.27 ± 0.037. Take ATTTTGCGAT: the switch fluorescence ratio turned out to be 1.01 ± 0.015. Regarding ATTTTGCGTG, the switch fluorescence ratio is 0.98 ± 0.029. For the sequence ATTTTGCTAA, the switch fluorescence ratio came to 0.996 ± 0.016. Next, ATTTTGCTCT: 1.02 ± 0.026. With ATTTTGGCGA, the switch fluorescence ratio was 1.02 ± 0.029. Regarding ATTTTGGTTG, the switch fluorescence ratio was determined as 1.01 ± 0.035. Next, ATTTTGTCGC: 0.992 ± 0.016; ATTTTGTGTT: 0.988 ± 0.022; ATTTTTAAGA: 1 ± 0.012.

In the case of ATTTTTATCC, the switch fluorescence ratio was 1.022 ± 0.0068. Next, ATTTTTGAGC: 1.04 ± 0.048. For ATTTTTGAGT, the switch fluorescence ratio is 1.02 ± 0.025. Turning to ATTTTTGTGG, the switch fluorescence ratio is 0.974 ± 0.011. For the sequence ATTTTTGTTA, the switch fluorescence ratio was determined as 0.986 ± 0.054. ATTTTTTCAG: the switch fluorescence ratio was determined as 1.03 ± 0.014. With ATTTTTTCCT, the switch fluorescence ratio was 1.03 ± 0.022. Take ATTTTTTCGC: the switch fluorescence ratio stood at 0.995 ± 0.015. For ATTTTTTGAA, the switch fluorescence ratio came to 0.997 ± 0.019. With ATTTTTTGG, the switch fluorescence ratio turned out to be 0.997 ± 0.017.

For ATTTTTTTAT, the switch fluorescence ratio was 0.995 ± 0.017. As for CAAAAAACGA, the switch fluorescence ratio is 0.999 ± 0.066. Take CAAAAATTAT: the switch fluorescence ratio came to 1.03 ± 0.044.

Turning to CAAAACTTGC, the switch fluorescence ratio was found to be 1.18 ± 0.032. Regarding CAAAAGGCAG, the switch fluorescence ratio turned out to be 0.984 ± 0.048. For CAAAAGGGAT, the switch fluorescence ratio turned out to be 1.03 ± 0.017.

In the case of CAAAAGGTTA, the switch fluorescence ratio is 0.996 ± 0.011. Regarding CAAAAGTCGG, the switch fluorescence ratio came to 1.02 ± 0.012.

Turning to CAAAAGTCTT, the switch fluorescence ratio came to 1.02 ± 0.037. Take CAAAATTAAA: the switch fluorescence ratio is 0.958 ± 0.044. Consider CAAAATTGGG, for which the switch fluorescence ratio worked out at 0.956 ± 0.013.

Consider CAAACAGGCA, for which the switch fluorescence ratio amounted to 1.03 ± 0.041. Consider CAAACAGTCG, for which the switch fluorescence ratio stood at 1.01 ± 0.042.

Consider CAAACTGTCA, for which the switch fluorescence ratio amounted to 1.07 ± 0.06. Regarding CAAAGATAAT, the switch fluorescence ratio was found to be 1.01 ± 0.039. In the case of CAAAGATGG it was 0.947 ± 0.013; in that of CAAAGCTGGG, 1.05 ± 0.05. In the case of CAAAGGGCAT it was 1.02 ± 0.032.

With CAAAGGGGGT, the switch fluorescence ratio was 1 ± 0.016. Next, CAAAGGTGCA: 1.09 ± 0.032.

For CAAAGGTTGG, the switch fluorescence ratio stood at 1 ± 0.038.

As to CAAATAAGTC, the switch fluorescence ratio stood at 0.998 ± 0.013. As to CAAATACGGT, the switch fluorescence ratio was 1.25 ± 0.25. On to CAAATACTTG, for which the switch fluorescence ratio amounted to 1.04 ± 0.019. Turning to CAAATAGGCC, the switch fluorescence ratio is 1.002 ± 0.0014.

CAAATAGGGG: the switch fluorescence ratio was found to be 0.971 ± 0.024.

Regarding CAAATATGAG, the switch fluorescence ratio came out at 0.972 ± 0.033.

Consider CAAATGATGT, for which the switch fluorescence ratio was 1.01 ± 0.027. As for CAAATGCCCG, the switch fluorescence ratio was determined as 0.934 ± 0.055. As to CAAATGGGCT, the switch fluorescence ratio amounted to 0.975 ± 0.044. For the sequence CAAATGGGG, the switch fluorescence ratio turned out to be 0.9589 ± 0.006.

Take CAAATGGGGG: the switch fluorescence ratio was determined as 0.985 ± 0.015.

For the sequence CAAATGGTTC, the switch fluorescence ratio is 0.9582 ± 0.0043. CAAATTAGGC: the switch fluorescence ratio was found to be 1.06 ± 0.1. For the sequence CAAATTGGAC, the switch fluorescence ratio is 1.03 ± 0.0071. With CAAATTTTTT, the switch fluorescence ratio came out at 1.01 ± 0.02. On to CAACAAGGGA, for which the switch fluorescence ratio was 1.04 ± 0.018. Turning to CAACATGGGG, the switch fluorescence ratio turned out to be 0.9925 ± 0.0065. CAACCCATCT: the switch fluorescence ratio came out at 0.992 ± 0.042. Next, CAACCGTGAG: 1.02 ± 0.017; CAACGGGGGA: 1 ± 0.032; CAACGGGTGC: 1.75 ± 0.21.

On to CAACTATTTT, for which the switch fluorescence ratio was 1.002 ± 0.0083. On to CAACTTAGTC, for which the switch fluorescence ratio was determined as 0.988 ± 0.068.

For the sequence CAAGAAGTGG, the switch fluorescence ratio is 0.993 ± 0.041. As to CAAGAGGGAG, the switch fluorescence ratio was determined as 0.994 ± 0.018. As to CAAGCCATCA, the switch fluorescence ratio was 0.9994 ± 0.0092.

Regarding CAAGCCGTGT, the switch fluorescence ratio was 1.02 ± 0.036. As to CAAGCGTTGT, the switch fluorescence ratio came to 1.03 ± 0.036. Next, CAAGCTTTTT: 0.979 ± 0.032; CAAGGAACGT: 1.01 ± 0.029. Take CAAGGATGTG: the switch fluorescence ratio came to 0.965 ± 0.041.

For CAAGGCCTGT, the switch fluorescence ratio turned out to be 0.971 ± 0.017. Next, CAAGGCTGCA: 1.04 ± 0.06. Consider CAAGGGAATG, for which the switch fluorescence ratio worked out at 1 ± 0.022.

In the case of CAAGGGCGGG, the switch fluorescence ratio was 0.997 ± 0.063.

As to CAAGGGGGGT, the switch fluorescence ratio came out at 1 ± 0.019. CAAGGGTAGG: the switch fluorescence ratio was determined as 1.04 ± 0.021. With CAAGGTCAGA, the switch fluorescence ratio was 1.018 ± 0.01. Next, CAAGGTCCAG: 1 ± 0.041; CAAGGTTGTT: 1 ± 0.011; CAAGTAAAAG: 1.01 ± 0.011. In the case of CAAGTAGACC, the switch fluorescence ratio was 0.997 ± 0.13. Take CAAGTAGAGT: the switch fluorescence ratio is 0.9953 ± 0.0059. With CAAGTAGGTG, the switch fluorescence ratio worked out at 1.03 ± 0.015. For CAAGTCGTTT, the switch fluorescence ratio is 1.017 ± 0.0023. For the sequence CAAGTCTATG, the switch fluorescence ratio turned out to be 0.973 ± 0.036.

On to CAAGTGAATG, for which the switch fluorescence ratio came out at 1.01 ± 0.017. In the case of CAAGTGCTTG, the switch fluorescence ratio turned out to be 1.03 ± 0.014. Next, CAAGTGGCGG: 0.969 ± 0.016; CAAGTGGGGG: 1.02 ± 0.038. For the sequence CAAGTTAATG, the switch fluorescence ratio is 0.97 ± 0.041. On to CAAGTTATGT, for which the switch fluorescence ratio came out at 1 ± 0.044. Take CAAGTTGTTT: the switch fluorescence ratio stood at 0.996 ± 0.021. With CAAGTTTACC, the switch fluorescence ratio was 1.037 ± 0.0023. For CAATAAATAG, the switch fluorescence ratio was determined as 1.005 ± 0.006. With CAATAAATAT, the switch fluorescence ratio stood at 0.97 ± 0.032. Consider CAATAAGAGC, for which the switch fluorescence ratio turned out to be 1.09 ± 0.029.

Take CAATAATGTA: the switch fluorescence ratio is 1.03 ± 0.051.
